From the nanobody polyreactivity screen of Harvey et al. (2022)

Experiment: yeast display, Sf9 membrane polyspecificity reagent, FACS + sequencing; frameworks hold sequencing errors
Procedure, shortened: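 Using colony PCR, genes from sorted yeast display clones were amplified, then sequenced on MiSeq at 2 × 250 and filtered by CDR length. The clones had been stained with 10% biotinylated, detergent-solubilized Sf9 membrane reagent for 1 hour at 4 °C and sorted by FACS into low and high (top ~1%) gates on anti-HA and streptavidin fluorescence. Polyreactivity labels come from the gate of origin.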

Row | Sequence | polyreactivity (PSR sort gate)
1 | QVQLVESGGGLVQAGGSLRLSCAASGFIFSPNAMGWYRQAPGKEREFVAAIRYSGTSTSYADSVKGRFTISRDNAKNTVYLQMNSLKPEDTAVDYCAAQSRQRTGMYYWGQGTQVTVSS | high polyreactivity
2 | QVQLVESGGGLVQAGGSLRLSCAASGITFTVYAMGWYRQAPGKERELVAAITSTGSTNYADSVKGRSTISRDNAKNTVYLQMNSLKPEDTAVYYCAADRQITVYAYDYWGQGTQVTVSS | low polyreactivity
3 | QVQLVESGGGLVQAGGSLRLSCAASGRTFAAYAMGWYRPAPGKERELVAGITSSSVRTYYADSVKGRFTISRDNAKNTVYLQMNSLKPEDTAVYYRTARADGSSSRWRPYSKFYYWGQGTQVTVSS | low polyreactivity
4 | QVQLVESGGGLVQAGGSLRLSCAASGSTFTLYAMGWYRQAPGKERELVAAISWSGDTTYYADSVKGRFTISRDNAKNTVYLQMNSLKPEDTAVYYCAADWYTSYYYEHESWGQGTQVTVSS | high polyreactivity
5 | QVQVVESGGGLVQAGGSLRLSCAASGSIFTYYAMGWYRQAPGKERELVAAINWSGASTYYADSVKGRFTISRDNAKNTVYLQMNSLKPEDTAVYYCAGYGYWGQGTQVTVSS | high polyreactivity
6 | QVQLVESGGGLVQAGGSLRLSCAASGSIFAANAMGWYRQATGKESELVAAISWSGGSTYADSVKGRFTISRDNAKNTVYLQMNSLKPEDTAVYYCNAFVYVGTGRGYDTLDYWGQGTQVTVSS | low polyreactivity
7 | QVQLVESGGGLVQAGGSLRLSCAASGFTLGTNTMGWYRQAPGKEREFVAAISGRGSSTYYADSVKGRFTISRDNAKNTVYLQMNSLKPEDTAVYYCNKVFWPHPKVVTGNYWGQGTQVTVSS | high polyreactivity
8 | QVQLVESGGGLVQAGGSLSLSCAASGSSFGGYTMGWYRQAPGKERELVAAISRRGGNTYYADSVKGRFTISRDNAKNTVYLQMNSLNPEETAVYYCAVRWPSARIPVKLDYWGQGTQVTVSS | high polyreactivity
9 | QVQLVESGGGLVQAGGSLRLSCAASGRIISPYAMGWYRQAPGKERELVAAISWRGSSTYYADSVKGRFTISRDNAKNTVYLQMNSLKPEDTAVYYCAAVYYRGIQSYDYWGQGTQVTVSS | low polyreactivity
10 | QVQLVESGVGLVKAGGILRLSCAASGSIFLRYAMGWYRQAPGKERELVATISKSGGSTYYADSVKGRFTISRDNAKNTVYLQMNSLNPEDTAVYYCAAGYVYFQTYYYWGQGTQVTVSS | high polyreactivity
11 | QVHLVESGGGLVQAGGSLLLSCGASGITFVTYAMGWYRQAPGKEREFVPAISRSGGRTYYADSVKGRFTISRDNAKNTVYLQMNSLKPEDTAVYYCASDVFLLYSFTIYDYWGQGTQVTVSS | high polyreactivity
12 | QVQLVESGGGLVQAGGSLRLSCAASGSTFIGNAMGWYRQAPGKERELVADISWSTASTYYADSVKGRFTISRDNAKNTVYLQMNSLKPEDTAVYYCARDPFVYLYLVDYDYWGQGTQVTVSS | low polyreactivity
13 | QVQLVESGGGLVQAGGSLRLSCAASGIIFYYNAMGWYRQAPGKERELVASIRWRGGSTYYADSVKGRFTISRDNAKNTVYLQMNSLKPEDTAVYYCNVVKYVYIYSYWEYYYWGQGTQVTVSS | low polyreactivity
14 | QVQLVESRRGLVQAGGSLRLSCAASGRIFYRYALGWYRQAPGKEREFVAAISRSGGTTYYADSVKGRFTISRDNAKNTVYLQMNSLNPEDTAVYYCAAGGSFWYFSPRYGYWGQGTQVTVSS | high polyreactivity
15 | QVQIEESGGGLVQAGGSLRLSCAASGSIFGKYAMGWYRQAPGKERELVAAITWSGGYTRYADSGKGRFTISRDKAKNTVYLLMNSLKPEDTAVYYCADPSTESKYYYWGQGTQVTVSS | high polyreactivity
16 | QVQLVESGGGLVQAGGSLRLSCAASGSTFRYNSMGWYRQAPGKDRELVAAISRIGGTTYADSVKGRFTISRDNAKNTVYLQMNSLNPEDTAVYYCARANWGYYGPEYGYWGQGTQVTVSS | high polyreactivity
17 | QVQLVESGGGLVQAGGSLRLSCAASGSIFSYNAMGWYRQAPGKEREFVAAITSSGTRTYYADSVKGRFTISRDNAKNTVYLQMNSLKPEDTAVYYCAAKPSRYGIGFYWGQGTQVTVSS | high polyreactivity
18 | QVQLVESGGGLVQAGGSLRLSCAASGFIFRYYAMGSYRQAPGKERELVAAITSGGASTYYADSVKGRFTISRDNAMNTVYLQMNSLKPDDTAVYYCAADTSSYSEYEYWGQGTQVTVSS | low polyreactivity
19 | QVQLVESGGGLVQAGGSLRLSCAASGVIFNRYAMGWYRQAPGKERELVAAISSGGNTHYADSVKGRFTISRDNAKNTDYLQMNSLKPEDTAVYYCAKAFRHSTFFAPYDYWGQGTQVTVSS | low polyreactivity
20 | QVQLVESGGGLVQAGGRLRLSCAASGSIYDDYAMGWNRQAPGKEREFVAAIDYSGGSTYYADSVKGRFTISRDNAKNTVYFQKNSLKPEDTAVYYCAKEAITRTFQYRHDYWGQGTQVTVSS | low polyreactivity
21 | QVQLVESGGGLVQAGGSLRLICAASGRIFLENALGWYRQAPGKERELVATISNGGSTSYADSVKGRFTISRDNAKNKVYLQMISLKPEDTSVYYCAADYCWPYILYGYDYWGEGTQVTVSS | low polyreactivity
22 | QVQLVESGGGLVEAGGSLRLSCAASGYIFGSYAMGWYRHAPGKERELVASISKSGGSTYYADSVKGRFTISRDNAKNTVYLQMNSLKPEDTAVYYCAAAGIGGGGWGQGTQVTVSS | low polyreactivity

Row | Sequence | polyreactivity (PSR sort gate)
23 | QVQLVESGGGLVQAGGSLRLSCAASGRTFFPYPRGCYRQAPGTDREFFAAITWSGGSTTYADSVKGRFTISRDNAKNTVYLQMNSLKPEDTAVYYCNAGRRRSYSYDYWGQGTQVTVSS | low polyreactivity
24 | QVQLVESGGGLVQAGGSLRLSCAASGYTFSDYAMGWYRQAPGKERELVAAISWSGGSTYYADSVKGRFTISRDNAKNTVFLQMNSLKPEDTAVYYCAAKWYAPDLLYYYWGQGTQVTVSS | low polyreactivity
25 | QVQLVESGGGLVQAGGSLRLSCAAPGSIFGTNAMGWYRQAPGKERELVAAINWSGGTTYYADSVKGRFTISRDNAKNTVYLQMNSLKPEDTAVYYCATVFFVLPPTRFDSWGQGTQVTVSS | low polyreactivity
26 | QVQLVESGGGLVQAGGSLRLSCAASGRTFHINAMGWYRQAPGKERELVAGINSGGSTNYADSVKGRFTISRDNAKNTVYLQMNSLKPEDTAVYYCNAVVKLKYLYYYVEHYYWGQGTQVTVSS | low polyreactivity
27 | QVQLVESGGGLVQAGGSLRLSCAASGFIFTKNAIGWYRQAPGKERDLVDAISGTGGSTYYADSVKGRFTISRDNAKNTVYLKMNSLKPEDTAVYYCASRRYRLFSTGGQPGYYWGQGTQVTVSS | high polyreactivity
28 | QVQLVESGGGLVQAGGSLRLSCAASGFTFSRNVMGWYRQAPGKERELVADITLSGASTYYADSVKGRFTISRDNAKNTVYLQMNSLKPEDTAVYYCAAEPYHWRWGWRHDYWGQGTQVTVSS | low polyreactivity
29 | QVQLVESGGGLVQAGGSLRLSCAASGRILFFNAMGWYRQAPGKERELVAAISVSGGSTYYADSVKGRFTISRDNAQNTVYLQMNSLKPEDTAVYYCAKGYDFRRRYDYWGQGTQVTVSS | low polyreactivity
30 | QVQLVESGGGLVQAGGSLRLSCAASGFIFSLYAMGWYRQAPGKERELVAVITWSDGRTYYADSVKGRFTISRDNAKNTVYLQMNSLKPEDTAVYYCAAADWITEYDYWGQGTQVTVSS | low polyreactivity
31 | QVQLVETGVGLVQAGGILRLSCAASGSTFTNNGIGWYRQAPGKEREVVATNSWDGDSTYYAYSVKGRFSISRDTAKNTVYLQMNSLKPEDTAVYYCAADEWGSDSALNFEYWGQGTQVTVSS | low polyreactivity
32 | QVQLEESRGGLVQAGGSLRLSCAASGYTLYEYAMGWYRQAPGKERELDAAITRSGGSTYYADSVKGRFTISRDNAKNTVYLQMNSLKPEDTAVFYCNADIYSRHTVGGYYYWGQGTQVTVSS | high polyreactivity
33 | QVQLVESGGGLVQAGGSLRLSCAASGFTLYPYAKGWYRQAPGKARELVAAISWSVGSTRYADSVKGRFTISRDNAKNTVYLQMNSLKPEDTAVYYCAARPHGRFSQLRVDWGQGTQVTVSS | low polyreactivity
34 | QVQLVESGGGLVQAGGSLRLTCAASGSIIYTNGMGWYRQAPAKERELVAAISVSGGSTYYADSVKGRFTITRDNEKNTVYLQMNSLKPEDTAVYFCNAKDWYFYRYDYWGQGTQVTVSS | low polyreactivity
35 | QVQLVESGGGLVQAGGSLRLNCAASGSIFDHYAMGWYRQAPGKERELVAAINIRTGYTYYADSVKGRFTISRDNAKNTVYLQMNSLKPEDTAVYYCNRVVRGFVRHLDYWGQGTQVTVSS | low polyreactivity
36 | QVQLVESGGGLVQAGGSLRLSCAASGSIFGGYSMGWYRQAPGKEMELVARISSGGSTYYADSVKGRFTISRDNAKNTVYLQMNSLKQEDTAVYYCNAKTYTWWGLYEYWGQGTQVTVSS | high polyreactivity
37 | QVQIVESGGGLVQAGGSLRLSCASSGIIFWPNAMGWYRQAPGKERELVASITSGGYTYYADYVKGRFTISRDNAKNTVYLQMNSLKPEDTAVYYCAAEWYPYGPKRYYWGQGTQVTVSS | low polyreactivity
38 | QVQLVESGGGLVQAGGSLRLSCAASGFIRTYAMGWYRQAPGKERELVAAITSSGGRTYYADSVKGRFTISRDNAKNTVYLQMNSLKPEDTAVYYCAAGLGRYLRYNYWGQGTQVTVSS | high polyreactivity
39 | QDQHVESGGGVVQAGGSRRLSCAASGFTISSYAMGWYRPAPGKERHLVAAITWSGSRTYYADSVKGRFTISRDNAKNTVYLQMNSLKPEDTAVYYCAATYRSYRGVRYYLGQGTQVTVSS | high polyreactivity
40 | PVQLVESGGGLVQAGGSLRLSCAASGSTFTSNAMGWYRQAPGKERELVAAIDRNGGRTYYADSVNGRFTISRDNAKNTVYLQMNSMKPEDTEVYYCAVLSKYRRTFGSWGQGTLVTVSS | high polyreactivity
41 | QVQLVESGGGLVQAGGSLRLSCAASGSIFPDNAMRWYRQAPGKERELVAAITRGGSTYYADSVKGRFTISRDNAKNTVYLQMNSLKPEDTAVYYCAARRRYLWSYDYWGQGTQVTVSS | high polyreactivity
42 | QVQLVESGGGLVQAGGSLRLSCAASGSIFSYNAMGWYRQAPGKERELVAAITWSGGSTYYADSVKGRFTISRDNAKNTVYLQMNSLKPEDTAVYYCAAVYDDYSTSVGYSPEYDYWGQGTQVTESS | high polyreactivity
43 | QVQLVESGGGLVQAGGSLRLSCAASGSIFYRNAMGWYRQAPGKERELVASISSSAGRTYYADSVKGRFTISRDNAKNTVYLQMNSLKPEDTAVYYCAVTSYRQRGAFDYWGQGTQVTVSS | high polyreactivity
